The results in this text go back to patent publication US20210032294A1, “MODIFIED PlySs2 LYSINS AND USES THEREOF” (CONTRAFECT CORPORATION, priority 2018, published 2021).

Changes are numbered by the printed parent chain. Names and notes keep the numbering of the source. Values joined by “and” are separate entries in the source; they are usually repeats but may differ in a detail not shown here. Equal values may be shown once.

The subject of data set [1] is S. aureus isolate CFS-860. The experiment in a line: Mouse neutropenic thigh infection (MNTI) model. The format is in vivo, Staphylococcus aureus. The conditions noted are these: neutropenic BALB/cByJ mice, intravenous, dose response, 24 hours. As to the method:
The efficacy of four modified lysin polypeptides was compared to wild-type PlySs2 in a dose response (0-60 mg/kg) assay using a mouse neutropenic thigh infection (MNTI) model.
Bacterial inoculum was generated by allowing bacterial cells to grow to exponential phase in MHB until they reached an optical density (OD) of about 0.5 at 600 nm. The bacterial cells were thoroughly washed, resuspended in 0.9% sodium chloride USP, and diluted to an equivalent of 3.9×10^8 colony forming units (CFU)/mL. Cells were further diluted as described below in 0.9% sodium chloride USP and maintained on wet ice.
Neutropenia was induced in female BALB/cByJ mice (5-7 weeks, Jackson Laboratories) by intraperitoneal (ip) administration of 150 mg/kg and 100 mg/kg of cyclophosphamide 4 and 1 days prior to inoculation of bacteria, respectively. Bacterial inoculum (S. aureus isolate CFS-860, 100 μl of 10^7 CFU/ml solution) was injected intramuscularly (IM) into both posterior thighs of each mouse. […] At 2 hours post-inoculation (Early Control) and 24 hours post-treatment initiation, animals were euthanized (CO2 asphyxiation), and the thighs were aseptically removed. Each thigh was weighed, placed into 4 ml sterile saline and homogenized in 7 ml lysing tubes using a Precellys24 high-throughput tissue homogenizer (Bertin Corp, Rockville, Md.). Dilutions of homogenate were plated on tryptic soy blood agar plates (Becton Dickinson) and incubated at 37° C. overnight in a CO2 incubator. Bacterial burden was enumerated and expressed as log 10 CFU/g of thigh weight and compared to control animals harvested at 2 hours post infection (Early Control) and animals treated with vehicle (Late Control).
The data representing mouse thigh bacterial burden are depicted in FIG. 2. The upper dot on the y-axis is vehicle alone, and the lower dot on the y-axis is the Early Control. pp1149 is in fact also a wild-type lysin over-expressed and purified in the laboratory along with the other modified lysin polypeptides and used as an additional positive control.

Data set [2] is described as follows: Toxicity screening in mice. Conditions: 30 mg/kg. Type of data set: in vivo. As to the method:
Selected modified lysin polypeptides from Table 3 were subjected to further testing as described in more detail in subsequent Examples. […] The same 30 mg/kg dose of PlySs2 caused a 100% incidence of adventitial findings, which is an indication of potential toxicity.

For another data set, the system named is bacterial inoculum. The data set is described as follows: Thermal stability: in vitro lytic assay after 30 min heating. Type of data set: cell-based. Conditions: for % Wild-Type Activity at 37° C. / % of CF-301 wild-type, 37° C.: 30 minutes at 37° C.; for % Wild-Type Activity at 37° C.: 128 μg/mL in Tris buffer pH 8.0, CF-301 set at 100; for % of CF-301 wild-type, 37° C.: another experiment; for % of CF-301 wild-type, 40° C.: 30 minutes at 40° C.; for % of CF-301 wild-type, 42° C.: 30 minutes at 42° C.; for % of CF-301 wild-type, 45° C.: 30 minutes at 45° C.; for % of CF-301 wild-type, 48° C.: 30 minutes at 48° C.; for % of CF-301 wild-type, 50° C.: 30 minutes at 50° C. As to the method: Thermal stability was assessed by incubating the lysin polypeptides at a fixed concentration of 128 μg/mL in Tris buffer pH 8.0 for 30 minutes at various elevated temperatures (within the range of about 30° C. to 60° C.) prior to assessing activity. The samples were then cooled for 2 minutes on ice and activity was then assessed by an in vitro lytic assay by exposing a bacterial inoculum (OD600 ˜0.5-1.2) in Tris buffer to a 2-fold dilution series of each sample (diluted from 128-0.25 μg/mL across the x-axis of a 96 well microtiter plate). The loss of optical density was followed for 15 minute at room temperature, and the specific activity was determined based on the enzyme concentration enabling a 50% loss of optical density at 15 minutes. The enzyme activities of each variant were compared to the wild-type, CF-301 enzyme (GMT-grade PlySs2 protein) to calculate the % of Wild-Type Activity over a range of temperatures.
The thermal stability of wild-type, CF-301 was arbitrarily set at 100. The results for exemplary modified lysin polypeptides are set forth below in Table 5 at a single temperature of 37° C.:
In another experiment, the thermal stability of modified lysin polypeptides was assessed at different temperatures and compared with that of wild-type, CF-301 (set at 100).

B1: pp55: Modified PlySs2 lysin, SEQ ID NO: 3: L92W, V104S, V128T, Y137S; extra C-terminal lysine (+246K) (protein)
chain: MTTVNEALNNVRAQVGSGVSVGNGECYALASWYERMISPDATVGLGAGVGWVSGAIGDTISAKNIGSSYNWQANGWTVSTSGPFKAGQIVTWGATPGNPYGHVSIVEAVDGDRLTILEQNYGGKRYPTRNYYSAASSRQQVVHYITPPGTVAQSAPNLAGSRSYRETGTMTVTVDALNVRRAPNTSGEIVAVYKRGESFDYDTVIIDVNGYVWVSYIGGSGKRNYVATGATKDGKRFGNAWGTFK
With B1, the “Bactericidal efficacy (thigh bacterial burden) versus wild type” value in data set [1] is recorded as “activity comparable to wild-type PlySs2 lysin”. For the same molecule, in data set [2], the “Adventitial findings (lesions)” value is given as “did not result in adventitial lesions”. For the same molecule, in the data set on bacterial inoculum, the “% Wild-Type Activity at 37° C.” value was 122% and 146%; the “% of CF-301 wild-type, 37° C.” value was 122.1%; the “% of CF-301 wild-type, 40° C.” value was 110.8%; the “% of CF-301 wild-type, 42° C.” value worked out at 116.7%. In addition, in the data set on bacterial inoculum, the “% of CF-301 wild-type, 45° C.” value is on record as 82.0%; the “% of CF-301 wild-type, 48° C.” value stood at 36.5%; the “% of CF-301 wild-type, 50° C.” value came out at 11.2%.

B2: pp61: Modified PlySs2 lysin, SEQ ID NO: 4: L92W, V104S, V128T, Y137S, S198H, I206E; +246K (protein)
chain: B1 chain with S198H, I206E
For the molecule B2, in data set [1], the “Bactericidal efficacy (thigh bacterial burden) versus wild type” value was “activity comparable to wild-type PlySs2 lysin”. The “Adventitial findings (lesions)” value in data set [2] is reported as “did not result in adventitial lesions”. In addition, in the data set with bacterial inoculum, the “% Wild-Type Activity at 37° C.” value was 258%; the “% of CF-301 wild-type, 37° C.” value is 258.3%; the “% of CF-301 wild-type, 40° C.” value was determined as 149.1%; the “% of CF-301 wild-type, 42° C.” value amounted to 189.4%. Besides, in the data set with bacterial inoculum, the “% of CF-301 wild-type, 45° C.” value came to 80.0%; the “% of CF-301 wild-type, 48° C.” value turned out to be 0.0%; the “% of CF-301 wild-type, 50° C.” value amounted to 0.0%.

B3: pp65: Modified PlySs2 lysin, SEQ ID NO: 5: L92W, V104S, V128T, Y137S, S198Q, V204A, V212A; +246K (protein)
chain: B1 chain with S198Q, V204A, V212A
B3: in data set [1], the “Bactericidal efficacy (thigh bacterial burden) versus wild type” value was “activity comparable to wild-type PlySs2 lysin”. Also, the “Adventitial findings (lesions)” value in data set [2] is “did not result in adventitial lesions”. In the data set with bacterial inoculum, the “% Wild-Type Activity at 37° C.” value stood at 220%; the “% of CF-301 wild-type, 37° C.” value worked out at 219.9%; the “% of CF-301 wild-type, 40° C.” value came out at 248.4%; the “% of CF-301 wild-type, 42° C.” value is reported as 270.4%. Further, in the data set on bacterial inoculum, the “% of CF-301 wild-type, 45° C.” value is given as 82.1%; the “% of CF-301 wild-type, 48° C.” value was 0.0%; the “% of CF-301 wild-type, 50° C.” value turned out to be 0.0%.
